“Also recorded” adds a separate entry of the source.
What was measured:
mouse NRP2 [1] = biological target: T1, mouse NRP2 (Mus musculus, UniProt O35375); experiment: Epitope mapping: FACS staining of Expi293 cells expressing mouse NRP2 and b1 domain mutants; format: binding
T1 construct: host or cells: Expi293, transient transfection
T1 sequence (O35375 21-926 isoform O35375-4): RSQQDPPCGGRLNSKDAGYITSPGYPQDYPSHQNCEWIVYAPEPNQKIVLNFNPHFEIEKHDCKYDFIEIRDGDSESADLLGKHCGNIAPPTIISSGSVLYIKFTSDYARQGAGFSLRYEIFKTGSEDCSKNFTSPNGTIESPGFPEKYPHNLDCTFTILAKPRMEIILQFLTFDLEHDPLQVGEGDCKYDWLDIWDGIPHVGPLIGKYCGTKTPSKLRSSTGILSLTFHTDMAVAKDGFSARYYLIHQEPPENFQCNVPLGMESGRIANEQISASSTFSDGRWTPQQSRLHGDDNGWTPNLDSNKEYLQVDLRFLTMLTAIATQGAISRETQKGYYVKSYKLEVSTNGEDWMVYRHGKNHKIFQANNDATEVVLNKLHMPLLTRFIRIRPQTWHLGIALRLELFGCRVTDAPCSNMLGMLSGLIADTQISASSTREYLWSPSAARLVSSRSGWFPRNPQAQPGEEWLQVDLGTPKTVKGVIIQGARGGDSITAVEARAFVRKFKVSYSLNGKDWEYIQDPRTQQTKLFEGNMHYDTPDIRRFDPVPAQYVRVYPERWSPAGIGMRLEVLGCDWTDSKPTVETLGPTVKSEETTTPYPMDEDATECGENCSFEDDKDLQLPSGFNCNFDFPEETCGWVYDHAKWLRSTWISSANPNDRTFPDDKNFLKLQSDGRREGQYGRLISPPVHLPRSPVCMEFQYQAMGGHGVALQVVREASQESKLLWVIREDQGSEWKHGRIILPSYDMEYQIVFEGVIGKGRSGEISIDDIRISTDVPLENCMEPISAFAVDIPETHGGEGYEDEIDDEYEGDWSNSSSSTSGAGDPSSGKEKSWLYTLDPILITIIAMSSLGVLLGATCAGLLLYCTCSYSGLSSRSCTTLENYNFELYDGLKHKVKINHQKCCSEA
Method: (§1) Human NRP2a (version 2; see Table N1) and mouse NRP2v2 cDNAs were obtained from Origene. […] Human and mouse NRP2, expression vectors, along with expression vectors encoding all 6 mutants were transfected into Expi293 cells at 1 million cells/mL, by standard techniques. Approximately 40 hours post transfection cells were co-stained with aNRP2-10v10, and a species agnostic anti-NRP2 a1 specific binding antibody.

mouse NRP2 [2] = experiment: as above; format: binding; settings: MFI staining, antibody 10 nM, mutations made in isolation
Method: as §1

[3] = test system: neo-lymphangiogenesis of the cornea; experiment: Corneal alkali-burn injury model of neovascularization (LYVE-1 staining); format: in vivo, mouse; settings: IP on Day 0, 3, 7 and 10; Day 14; compared to IgG control; p=0.07
Method: Study Design & Treatment Regimen. The study consisted of 40 female C57BL/6 mice separated into four groups. Prior to study, animals were randomized into four groups, 10 mice per group. On Day 0, neovascularization (NV) of the cornea was induced from alkali-burn injury in the eyes of animals under anesthesia. Animals were treated intraperitoneally with control IgG (Group 1), aNRP2-28 (Group 2) and Bevacizumab (Group 3) on post-injury Day 0, 3, 7 and 10. During the in-life phase, animals were monitored with daily clinical observations and weekly body weights. Additionally, ocular assessments of injured eyes were scored and photos taken on post-injury Day 7 and Day 14. All animals were euthanized on Day 14. Injured eyes from all animals were removed and dissected. Whole-mounted corneas were fixed, stained with LYVE-1, and analyzed immunohistochemically to examine the efficacy of Test Articles.

B1: aNRP2-10v10: humanized, affinity matured anti-NRP2 antibody, target domain b1, VEGF-C blocking; VH SEQ ID NO: 49, VL SEQ ID NO: 50 (antibody, V domains shown)
VH: EVQLVQSGAEVKKPGATVKISCKVSGFNIKDYYVHWVQQAPGKGLEWMGRIDVEDDETKYAPKFQGRVTITADTSTDTAYMELSSLRSEDTAVYYCATPIYGAREAWFAYWGQGTLVTVSS
VL: DIQMTQSPSSLSASVGDRVTITCTASSSVSSSYLHWYQQKPGKAPKLLIYRTSNLASGVPSRFSGSGSGTDFTLTISSLQPEDFATYYCHQYYRSPPTFGGGTKVEIK
modifications: Variable heavy chain region; Light chain variable region
- binding to mouse NRP2 (wild type) (mouse NRP2 [1]): binds specifically to the b1 domain of human NRP2, but not mouse NRP2; also recorded: does not cross react with mouse NRP2
- binding activity to mouse NRP2 with mutations F299Y, K354N, and L416S (mouse NRP2 [2]): restored partial, but incomplete, binding activity
- binding to mouse NRP2 with mutations 1383V, M400A, and 1407V (mouse NRP2 [2]): no improvement in binding
- neo-lymphangiogenesis, % Lyve-1+ area of cornea [3]: clear trend towards reduced sprouting of lymphatic vessels

Reference: patent US12410253B2, “Compositions comprising anti-NRP2 antibodies” (aTyr Pharma, Inc., priority 2019, dated 2025)
